Experiment [1] deals with SARS-CoV-2 (2019-nCoV) Spike S1-His Recombinant Protein (Sino Biological Cat: 40591-VO8H), as barcode-linked antigen (SARS-CoV-2 (2019-nCoV)) (UniProt P0DTC2).
The target of experiment [2] is Influenza B [B/Washington/02/2019 (B/Victoria lineage)-like virus] Hemagglutinin (HA), His-Tag (Nati (Influenza B [B/Washington/02/2019 (B/Victoria lineage)-like virus])).
Experiment [3] has as its target Varicella-Zoster Virus Heterodimer gE/gI (HEK293), His-tag (Native Antigen Company #REC31907-100), a (Varicella-Zoster Virus) (UniProt P09259).
Experiment [4] has as its target Epstein-Barr virus (Herpesvirus 4) EBV Glycoprotein gp350/EBV GP350 Protein (His Tag) (Sino Biologic (Epstein-Barr virus (Herpesvirus 4)) (UniProt P03200)).
Experiment [5] addresses Human cytomegalovirus (HCMV) Glycoprotein B/gB Protein (His Tag) (Sino Biological 10202-V08H1), as b (Human cytomegalovirus (HCMV)).
The target of experiment [6] is Human Metapneumovirus (hMPV) B Glycoprotein G, His-Tag (HEK293) (Native Antigen Company #REC31948-10 (Human Metapneumovirus (hMPV) B)).
Experiment [7] deals with SARS-CoV-2 (2019-nCoV) Spike S1-His Recombinant Protein (Sino Biological Cat: 40591-VO8H), as barcode-linked antigen (SARS-CoV-2 (2019-nCoV)) (UniProt P0DTC2). This is another data set of the same source.

Sequence of UniProt P09259 (P09259 31-538 limits assumed, chain 1 of 2): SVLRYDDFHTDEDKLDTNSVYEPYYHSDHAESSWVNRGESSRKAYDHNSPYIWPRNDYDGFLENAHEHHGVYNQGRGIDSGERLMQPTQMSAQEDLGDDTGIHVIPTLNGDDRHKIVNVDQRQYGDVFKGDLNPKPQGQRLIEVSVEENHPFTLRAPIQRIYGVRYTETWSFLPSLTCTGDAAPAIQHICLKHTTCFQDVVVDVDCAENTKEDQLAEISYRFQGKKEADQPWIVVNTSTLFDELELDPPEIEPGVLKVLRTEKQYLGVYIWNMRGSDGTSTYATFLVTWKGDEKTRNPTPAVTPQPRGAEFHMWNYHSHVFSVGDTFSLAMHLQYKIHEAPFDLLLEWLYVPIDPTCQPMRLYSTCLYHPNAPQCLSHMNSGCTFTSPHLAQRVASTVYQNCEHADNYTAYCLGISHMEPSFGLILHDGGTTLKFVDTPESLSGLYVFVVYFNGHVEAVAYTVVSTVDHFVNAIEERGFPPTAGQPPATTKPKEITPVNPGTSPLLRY
Sequence of UniProt P09259 (P09258 18-295 limits assumed, chain 2 of 2, further chain): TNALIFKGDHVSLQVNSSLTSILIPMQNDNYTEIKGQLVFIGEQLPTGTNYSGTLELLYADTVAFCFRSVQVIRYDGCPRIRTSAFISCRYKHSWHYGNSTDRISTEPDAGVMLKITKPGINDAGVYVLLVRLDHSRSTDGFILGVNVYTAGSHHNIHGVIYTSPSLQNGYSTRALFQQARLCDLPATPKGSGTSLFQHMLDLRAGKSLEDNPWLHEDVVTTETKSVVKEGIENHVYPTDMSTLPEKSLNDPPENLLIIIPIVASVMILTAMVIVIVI
Sequence of UniProt P03200 (P03200 1-470): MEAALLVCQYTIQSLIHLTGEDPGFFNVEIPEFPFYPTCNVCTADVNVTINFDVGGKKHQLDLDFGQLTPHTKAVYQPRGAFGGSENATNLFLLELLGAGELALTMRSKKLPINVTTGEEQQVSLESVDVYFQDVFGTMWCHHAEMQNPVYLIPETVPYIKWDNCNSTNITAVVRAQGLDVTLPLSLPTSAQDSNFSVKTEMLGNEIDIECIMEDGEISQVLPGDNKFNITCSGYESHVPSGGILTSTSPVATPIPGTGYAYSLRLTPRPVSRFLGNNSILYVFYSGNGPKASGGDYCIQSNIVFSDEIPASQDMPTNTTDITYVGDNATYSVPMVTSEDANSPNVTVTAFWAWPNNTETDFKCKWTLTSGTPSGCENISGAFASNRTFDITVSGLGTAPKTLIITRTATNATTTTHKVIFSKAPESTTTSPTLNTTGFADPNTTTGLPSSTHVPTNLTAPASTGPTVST

Take “SARS-CoV-2 (2019-nCoV) Nucleocapsid Antibody, Rabbit MAb (Sino Biological Cat: 40143-R019)”: in experiment [1], the Spike #/Nuc # came out at 0.291. The substance further showed a barcode sequence counts (FLU B) in experiment [2] of 185 counts. The substance further had a barcode sequence counts (VZV) in experiment [3] of 200 counts. Moreover, in experiment [4], the barcode sequence counts (EBV) turned out to be 1080 counts. In experiment [5], this substance gave a barcode sequence counts (HCMV) of 836 counts. The substance also gave a barcode sequence counts (hMPV) in experiment [6] of 201 counts. Moreover, the barcode sequence counts (COVID Spike) in experiment [7] amounted to 900 counts.

The values above are taken from patent US20220341931A1.
